In general, EC50 refers to the concentration giving half of the maximal effect. One may read the Kd as the free concentration of one partner at which half of the binding sites on the other are occupied at equilibrium, for simple one-to-one binding. Broadly, the koff is the rate constant with which the complex falls apart. The low end stands for slow dissociation, the high end for fast dissociation. As a reminder, the kon is a measure of how fast the partners come together. A higher kon goes with faster complex formation.

The target in test [1] is T1, human TIM-3 extracellular domain-human IgG1 Fc fusion protein (human, UniProt Q8TDQ0 22-199).
T1 construct: Made in house or bought (ACROBiosystems TM3-H5258); also called TIM-3-hFc; not shown: human IgG1 Fc
Description: ELISA. As for the experimental part:
(§1) Goat-anti-hFc (Jackson, 109-005-008) was diluted to a concentration of 1 μg/ml with PBS buffer (pH 7.4) and added to a 96-well microplate (Corning, CLS3590-100EA) at a volume of 50 μl/well, then incubated in an incubator at 37° C. for 2 hours (Or the antigen TIM-3 was directly used to coat the microplate with a concentration of 0.5 μg/ml, and then the antibody to be tested was directly added). After discarding the liquid, a blocking solution of 5% skimmed milk (skimmed milk powder purchased from Bright) diluted with PBS was added at 200 μl per well, and the microplate was incubated for 2.5 hours at 37° C. or overnight (16-18 hours) at 4° C. for blocking. The blocking solution was discarded, and the microplate was washed 5 times with PBST buffer (PBS with pH 7.4 containing 0.05% tween-20), then 50 μl/well of 0.5 μg/ml TIM-3-hFc (Example 1) was added and incubated for 2 hours in a 37° C. incubator. After incubation, the microplate was washed 6 times with PB ST. 50 μl/well of supernatant (containing testing antibody) or different concentrations of the antibody to be tested was added, and the microplate was incubated at 37° C. for 2 hours and washed 5 times with PBST. 50 μl/well of 1:2500 diluted HRP-labeled secondary antibody (Jackson Immuno Research, 115-035-003) was added to the microplate, incubating at 37° C. for 1 hour. After washing the microplate 5 times with PBST, 50 μl/well TMB chromogenic substrate (KPL, 52-00-03) was added to the microplate, followed by incubating at room temperature for 10-15 min.
The above-mentioned TIM-3 and PD-1 bispecific antibodies of the present invention were optimized and designed using the methods of Example 2 and Example 5, and their affinity for TIM-3 and PD-1 were tested respectively.

For test [2], the target named is T1, human TIM-3 extracellular domain-human …. Description: ELISA. As to the method:
as §1
The source holds these as a separate data set. Background: ELISA stands for enzyme-linked immunosorbent assay.

For test [3] the target is unchanged. Description: ELISA; pH 5.5, 40°C 5 days.
Test [4] deals with T2, human PD-1 extracellular domain protein expressed in Example 1 (tag not stated) (human, UniProt Q15116 25-170).
T2 construct: extracellular domain; also called PD-1 protein; not shown: human IgG1 Fc or his tag
Description: ELISA; pH 5.5, 40°C 5 days.

Test [5] deals with T1, human TIM-3 extracellular domain-human …. Put plainly: ELISA; pH 5.5, 37°C 10 days.
Test [6] deals with T2, human PD-1 extracellular domain protein …. Description: ELISA; pH 5.5, 37°C 10 days.
The target of test [7] is T1, human TIM-3 extracellular domain-human …. Put plainly: ELISA; pH 5.5, 40°C 10 days.
In test [8] the target is T2, human PD-1 extracellular domain protein …. Put plainly: ELISA; pH 5.5, 40°C 10 days.
For test [9], the target named is T1, human TIM-3 extracellular domain-human …. Description: ELISA; PBS, 37°C 7 days, against 0 day.
Test [10] has the same target. Put plainly: ELISA; pH 5.5, 40°C 5 days, against 0 day.
For test [11], the target named is T2, human PD-1 extracellular domain protein …. Description: ELISA; pH 5.5, 40°C 5 days, against 0 day.
Test [12] has as its target T1, human TIM-3 extracellular domain-human …. Description: ELISA; 15 mg/mL, His buffer pH 5.5, 37°C 0 day (-80°C).
Test [13] addresses T2, human PD-1 extracellular domain protein …. The description is as above.
The target of test [14] is T1, human TIM-3 extracellular domain-human …. Put plainly: ELISA; preparation buffer, 37°C 14 days (degraded sample).
Test [15] addresses T2, human PD-1 extracellular domain protein …. Described as above.
Test [16] has as its target T3, human TIM-3 extracellular domain-his tag protein (human, UniProt Q8TDQ0 22-199).
T3 construct: Made in house or bought (ACROBiosystems TM3-H5229); also called TIM-3-his; Human Tim3-his; not shown: his tag
Description: SPR Biacore, antibody captured on Protein A, antigen in flow. As to the method:
(§2) First, Protein A (Thermo Pierce, Cat #21181) was conjugated to the biosensing chip CMS (Cat. #BR-1005-30, GE), and the chip was activated with the newly prepared 50 mM NHS (N-hydroxysuccinimide) and 200 mM EDC [1-ethyl-3-(3-dimethylaminopropyl) carbodiimide hydrochloride], then 10 μg/ml Protein A prepared with 10 mM NaAC (pH 4.0) was injected. […] The flow rate was 30 μl/min, the binding time was 180 seconds and the dissociation time is 300 seconds. Subsequently, the chip was washed for 30s with 10 mM Glycine-HCl (pH 1.5) at 30 μl/min. The data were fitted with a 1:1 Langmuir model using the software of Biacore T200 evaluation version 3.0 (GE), and the affinity value KD was obtained.
In general terms: Surface plasmon resonance follows binding to a sensor surface in real time, without labels.

A further test concerns the target T4, Human PD-1-his (human, UniProt Q15116 25-170).
T4 construct: extracellular domain; not shown: his tag
Described as above. As to the method: as §2

B1: bispecific antibody LB141 (bispecific antibody, human IgG4 S228P, kappa)
light: EIVLTQSPATLSLSPGERATLSCRASKGVSTSGYSYLHWYQQKPGQAPRLLIYLASYLESGVPARFSGSGSGTDFTLTISSLEPEDFAVYYCQHSRDLPLTFGGGTKVEIKRTVAAPSVFIFPPSDEQLKSGTASVVCLLNNFYPREAKVQWKVDNALQSGNSQESVTEQDSKDSTYSLSSTLTLSKADYEKHKVYACEVTHQGLSSPVTKSFNRGEC
heavy: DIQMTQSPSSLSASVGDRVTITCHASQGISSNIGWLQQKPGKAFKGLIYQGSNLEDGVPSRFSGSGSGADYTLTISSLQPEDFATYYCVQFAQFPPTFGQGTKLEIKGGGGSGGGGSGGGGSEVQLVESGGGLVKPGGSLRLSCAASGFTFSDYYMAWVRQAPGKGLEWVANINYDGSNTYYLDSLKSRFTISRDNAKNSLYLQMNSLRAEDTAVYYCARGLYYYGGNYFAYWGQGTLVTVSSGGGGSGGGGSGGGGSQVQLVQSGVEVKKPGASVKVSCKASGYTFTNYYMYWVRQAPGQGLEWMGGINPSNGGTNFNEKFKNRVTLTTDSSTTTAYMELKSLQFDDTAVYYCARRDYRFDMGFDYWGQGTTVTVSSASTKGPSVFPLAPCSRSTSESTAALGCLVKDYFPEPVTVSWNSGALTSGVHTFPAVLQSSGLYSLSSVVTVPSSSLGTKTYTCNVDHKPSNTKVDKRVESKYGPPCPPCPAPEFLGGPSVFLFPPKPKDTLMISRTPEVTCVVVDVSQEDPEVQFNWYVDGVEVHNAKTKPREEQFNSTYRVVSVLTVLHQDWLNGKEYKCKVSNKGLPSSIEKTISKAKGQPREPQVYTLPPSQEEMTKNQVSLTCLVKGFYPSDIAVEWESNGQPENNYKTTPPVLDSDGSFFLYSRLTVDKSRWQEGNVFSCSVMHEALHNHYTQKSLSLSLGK
notes: ab6VL-(G4S)3-ab6VH-(G4S)3-PemVH-hIgG4 with PemVL-κ
Turning to B1, the EC50 in test [1] was determined as 81 pM; in test [2] it was 648 pM; in test [3] it was 341 pM; in [4], 200 pM; in test [5], 307 pM; in test [6] it was 198 pM. The EC50 was determined as 373 pM in [7]; 215 pM in test [8]; 148 pM in test [12]; 144 pM in [13]; 14500 pM in test [14]; 446 pM in test [15]. For the same molecule, the “Fold change of EC50” value in test [9] amounted to 1.28 ratio; in test [10], 0.95 ratio; in test [11], 1.1 ratio. The values for the Kd (in [16]; with Human PD-1-his) were 5060 pM and 6630 pM, respectively. Further, the off-rate constant (koff) came out at 0.00393 s⁻¹ in test [16] and 0.00285 s⁻¹ with Human PD-1-his. In addition, the on-rate constant (kon) in [16] is 777000 M⁻¹ s⁻¹; in the test with Human PD-1-his, 430000 M⁻¹ s⁻¹.

These data come from US20210269521A1 (L AND L BIOPHARMA, published 2021).
